# Reference: paper PMC7012691
# Substrate: O=[N+]([O-])c1ccc(O[C@H]2O[C@H](CO)[C@@H](O)[C@H](O)[C@@H]2O)cc1
# Assay: purified protein
# Type: biochemical, Enterococcus faecalis
# Conditions: apparent, MES 100 mM, pH 6.0, CaCl2 4 mM, 37 °C, 10 min
protein,measurement,value
EfMan-I (Enterococcus faecalis V583) (protein) MNIQAIDTRHGTANQHSFSNGNCLPYTGVPFGMNFYAPQTTDQKGSWWFHPEDRTFQGYRVTHQPSPWMGDFSHLLMTPVSGSLSELSLFHAQSSYRPEESLFSPVEINLTQLRYQITSQLIPSMYGGILTIDYQQKDNHLLLTLPGRYQVKQLDDHQVAVKVINYSGCEDPDFSFYFVLHFEQPLTKWFAPSSGEDGKILLSFGNIAQQVVHFSSSFISEKQAQLNLAREISLRSTEMLQQGIADWHNYFDRLKVTHENPEHTKTFYHTLYRTFLFPQTFYELDENQQPIHYDTFSQTVRPGVLYTNNGFWDTYKTVYPLFSLIAQEKYEEMLEGFLNSYNETGFLPKWLSPDERGLMPGTLIDAVIADAAVKKIRPDLMPQFLEAMKKGATQQSERENYGRQGTLDYLKYGYVPSTYHESVNHTLDYAYSDFCISQVAKTLNDSETATFYRQQALNYQQLFNPETGFMQAKDTEGNFRPDFLDIRWGKDYAEGSAWQSSFAVYQDFAGLIKLYGSELAFEKKLIQLCNQAPNFNVEGYGFEIHEMSEMAAIDFGQLAISNQPSFHYPFLFSYIGKPEMAQPLLKQLMQTFDASPTGYPGDEDNGSMSAWYIFNSLGFYPVTPGTGEYVIGMPLVQTAEVKLSNGKQLTIQTSPNKVQQQFIHEIQLNQEKHTAPYFTHQELLNGGTLDYQLGIVPNPQNTAERPFSLSTEK,Km,11 ± 1.7 mM
same,kcat,0.49 ± 0.03 s⁻¹
same,kcat/Km,47 M⁻¹ s⁻¹
